Bridges are numbered along the chain shown (N, C = ends). Where no end group is shown, it is not given here. [ ]: non-standard residue; d: D form. The star is where a group is joined. Phe(4-NO2) = N[C@@H](Cc1ccc([N+](=O)[O-])cc1)C(=O)O; Phe(4-F) = N[C@@H](Cc1ccc(F)cc1)C(=O)O; Palmitoyl = CCCCCCCCCCCCCCCC(=O)*; Met(O) = CS(=O)CC[C@H](N)C(=O)O; Aib = CC(C)(N)C(=O)O
T1: human GIP receptor (human, UniProt P48546 22-466)
T1 sequence (looked up): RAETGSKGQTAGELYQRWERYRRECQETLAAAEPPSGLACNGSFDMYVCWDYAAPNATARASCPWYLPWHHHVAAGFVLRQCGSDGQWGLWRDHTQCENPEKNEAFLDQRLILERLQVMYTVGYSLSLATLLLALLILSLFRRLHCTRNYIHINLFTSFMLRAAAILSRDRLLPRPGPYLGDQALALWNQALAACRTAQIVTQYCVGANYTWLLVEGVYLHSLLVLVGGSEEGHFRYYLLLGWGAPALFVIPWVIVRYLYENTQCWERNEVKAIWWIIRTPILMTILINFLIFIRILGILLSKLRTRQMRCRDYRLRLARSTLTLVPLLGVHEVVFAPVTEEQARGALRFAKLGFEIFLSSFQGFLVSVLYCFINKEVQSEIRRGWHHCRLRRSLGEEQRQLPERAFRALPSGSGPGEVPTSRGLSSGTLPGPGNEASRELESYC

B1: Analog 084 (peptide)
peptide: Y[Aib]EGTFTSDYSEYMEKEAVREFIAWLVKGK(Palmitoyl)-NH2
modifications: lactam 12-16; N-terminus assumed
SMILES: CCCCCCCCCCCCCCCC(=O)NCCCC[C@H](NC(=O)CNC(=O)[C@H](CCCCN)NC(=O)[C@@H](NC(=O)[C@H](CC(C)C)NC(=O)[C@H](Cc1c[nH]c2ccccc12)NC(=O)[C@H](C)NC(=O)[C@@H](NC(=O)[C@H](Cc1ccccc1)NC(=O)[C@H](CCC(=O)O)NC(=O)[C@H](CCCNC(=N)N)NC(=O)[C@@H](NC(=O)[C@H](C)NC(=O)[C@H](CCC(=O)O)NC(=O)[C@@H]1CCCCNC(=O)CC[C@H](NC(=O)[C@H](CO)NC(=O)[C@H](Cc2ccc(O)cc2)NC(=O)[C@H](CC(=O)O)NC(=O)[C@H](CO)NC(=O)[C@@H](NC(=O)[C@H](Cc2ccccc2)NC(=O)[C@@H](NC(=O)CNC(=O)[C@H](CCC(=O)O)NC(=O)C(C)(C)NC(=O)[C@@H](N)Cc2ccc(O)cc2)[C@@H](C)O)[C@@H](C)O)C(=O)N[C@@H](Cc2ccc(O)cc2)C(=O)N[C@@H](CCSC)C(=O)N[C@@H](CCC(=O)O)C(=O)N1)C(C)C)[C@@H](C)CC)C(C)C)C(N)=O
B2: Analog 066 (peptide)
peptide: Y[Aib]EGTFTSDYSIYMEKEAVREFIAWLVKGGPSSGAPPPSK-NH2
modifications: N-terminus assumed
SMILES: CC[C@H](C)[C@H](NC(=O)[C@H](Cc1ccccc1)NC(=O)[C@H](CCC(=O)O)NC(=O)[C@H](CCCNC(=N)N)NC(=O)[C@@H](NC(=O)[C@H](C)NC(=O)[C@H](CCC(=O)O)NC(=O)[C@H](CCCCN)NC(=O)[C@H](CCC(=O)O)NC(=O)[C@H](CCSC)NC(=O)[C@H](Cc1ccc(O)cc1)NC(=O)[C@@H](NC(=O)[C@H](CO)NC(=O)[C@H](Cc1ccc(O)cc1)NC(=O)[C@H](CC(=O)O)NC(=O)[C@H](CO)NC(=O)[C@@H](NC(=O)[C@H](Cc1ccccc1)NC(=O)[C@@H](NC(=O)CNC(=O)[C@H](CCC(=O)O)NC(=O)C(C)(C)NC(=O)[C@@H](N)Cc1ccc(O)cc1)[C@@H](C)O)[C@@H](C)O)[C@@H](C)CC)C(C)C)C(=O)N[C@@H](C)C(=O)N[C@@H](Cc1c[nH]c2ccccc12)C(=O)N[C@@H](CC(C)C)C(=O)N[C@H](C(=O)N[C@@H](CCCCN)C(=O)NCC(=O)NCC(=O)N1CCC[C@H]1C(=O)N[C@@H](CO)C(=O)N[C@@H](CO)C(=O)NCC(=O)N[C@@H](C)C(=O)N1CCC[C@H]1C(=O)N1CCC[C@H]1C(=O)N1CCC[C@H]1C(=O)N[C@@H](CO)C(=O)N[C@@H](CCCCN)C(N)=O)C(C)C
B3: Analog 067 (peptide)
peptide: Y[Aib]EGTFTSDYSIYMEKEAVK(Palmitoyl)EFIAWLVKG-NH2
modifications: N-terminus assumed
SMILES: CCCCCCCCCCCCCCCC(=O)NCCCC[C@H](NC(=O)[C@@H](NC(=O)[C@H](C)NC(=O)[C@H](CCC(=O)O)NC(=O)[C@H](CCCCN)NC(=O)[C@H](CCC(=O)O)NC(=O)[C@H](CCSC)NC(=O)[C@H](Cc1ccc(O)cc1)NC(=O)[C@@H](NC(=O)[C@H](CO)NC(=O)[C@H](Cc1ccc(O)cc1)NC(=O)[C@H](CC(=O)O)NC(=O)[C@H](CO)NC(=O)[C@@H](NC(=O)[C@H](Cc1ccccc1)NC(=O)[C@@H](NC(=O)CNC(=O)[C@H](CCC(=O)O)NC(=O)C(C)(C)NC(=O)[C@@H](N)Cc1ccc(O)cc1)[C@@H](C)O)[C@@H](C)O)[C@@H](C)CC)C(C)C)C(=O)N[C@@H](CCC(=O)O)C(=O)N[C@@H](Cc1ccccc1)C(=O)N[C@H](C(=O)N[C@@H](C)C(=O)N[C@@H](Cc1c[nH]c2ccccc12)C(=O)N[C@@H](CC(C)C)C(=O)N[C@H](C(=O)N[C@@H](CCCCN)C(=O)NCC(N)=O)C(C)C)[C@@H](C)CC
B4: Analog 075 (peptide)
peptide: Y[Aib]EGTFTSDYSIYMEKEAVREFIAWLVKGRRRRRR-NH2
modifications: N-terminus assumed
SMILES: CC[C@H](C)[C@H](NC(=O)[C@H](Cc1ccccc1)NC(=O)[C@H](CCC(=O)O)NC(=O)[C@H](CCCNC(=N)N)NC(=O)[C@@H](NC(=O)[C@H](C)NC(=O)[C@H](CCC(=O)O)NC(=O)[C@H](CCCCN)NC(=O)[C@H](CCC(=O)O)NC(=O)[C@H](CCSC)NC(=O)[C@H](Cc1ccc(O)cc1)NC(=O)[C@@H](NC(=O)[C@H](CO)NC(=O)[C@H](Cc1ccc(O)cc1)NC(=O)[C@H](CC(=O)O)NC(=O)[C@H](CO)NC(=O)[C@@H](NC(=O)[C@H](Cc1ccccc1)NC(=O)[C@@H](NC(=O)CNC(=O)[C@H](CCC(=O)O)NC(=O)C(C)(C)NC(=O)[C@@H](N)Cc1ccc(O)cc1)[C@@H](C)O)[C@@H](C)O)[C@@H](C)CC)C(C)C)C(=O)N[C@@H](C)C(=O)N[C@@H](Cc1c[nH]c2ccccc12)C(=O)N[C@@H](CC(C)C)C(=O)N[C@H](C(=O)N[C@@H](CCCCN)C(=O)NCC(=O)N[C@@H](CCCNC(=N)N)C(=O)N[C@@H](CCCNC(=N)N)C(=O)N[C@@H](CCCNC(=N)N)C(=O)N[C@@H](CCCNC(=N)N)C(=O)N[C@@H](CCCNC(=N)N)C(=O)N[C@@H](CCCNC(=N)N)C(N)=O)C(C)C

How the values were obtained:
human GLP-1 receptor = human GLP-1 receptor (human, UniProt P43220 24-463); test: cell-based or functional assay
human GLP-1 receptor, sequence (P43220 24-463): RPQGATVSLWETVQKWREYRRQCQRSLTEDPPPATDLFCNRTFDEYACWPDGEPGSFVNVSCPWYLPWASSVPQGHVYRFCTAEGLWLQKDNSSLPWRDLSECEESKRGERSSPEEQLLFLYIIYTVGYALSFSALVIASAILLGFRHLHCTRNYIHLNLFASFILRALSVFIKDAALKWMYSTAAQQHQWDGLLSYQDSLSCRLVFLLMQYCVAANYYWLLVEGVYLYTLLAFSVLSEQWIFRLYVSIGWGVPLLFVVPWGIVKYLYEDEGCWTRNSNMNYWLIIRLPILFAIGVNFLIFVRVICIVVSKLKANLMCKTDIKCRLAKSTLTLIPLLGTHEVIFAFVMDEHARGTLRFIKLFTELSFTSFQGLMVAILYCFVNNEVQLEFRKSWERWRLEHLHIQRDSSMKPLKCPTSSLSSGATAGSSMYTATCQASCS

human GIP receptor = biological target: T1, human GIP receptor; test: cell-based or functional assay

Row | Binder | EC50, GLP-1 Receptor cAMP induction (human GLP-1 receptor) [nM] | EC50, GIP Receptor cAMP induction (human GIP receptor) [nM] | Relative Potency, GLP-1 Receptor (human GLP-1 receptor) [%] | Relative Potency, GIP Receptor (human GIP receptor) [%]
1 | Y[Aib]EGTFTSDYSI[Phe(4-NO2)][Met(O)]EKIHQQDFVNWLLAQ-NH2 [Analog 005] | > 2000 | 76.5 | – | –
2 | Y[Aib]EGTFTSDYSI[Phe(4-F)][Met(O)]EKIHQQDFVNWLLAQ-NH2 [Analog 004] | 926 | 14.6 | – | –
3 | B1 | 4.8 | 1.34 | 22.2 | 8.8
4 | B2 | 2.5 | 0.34 | 43.7 | 50
5 | B3 | 7.87 | 3.7 | 13.9 | 4.6
6 | Y[Aib]EGTFTSDYSIAMEKIHQQDFVNWLLAQ-NH2 [Analog 002] | 995 | 11.1 | – | –
7 | B4 | 1.41 | 1.45 | 77.7 | 8.3
8 | Y[Aib]EGTFTSDYSIYMEKIHQQDFVNWLLAQ-NH2 [Analog 003] | 483 | 0.18 | – | 77.7

Reference: patent US20140162945A1 (BEIJING HANMI PHARMACEUTICAL, published 2014)
